# According to paper PMC11189624 (2024):
# B1: GST-Mlph-ABD (the GST-tagged ABD of Mlph, residues 401–590) (protein)
# chain: SSEDETKPDGTFLGGSPKVCTDTGHMETQERNPRSPGNPARPTKSTDEELSEMEDRVAMTASEVQQAESEISDIESRIAALRAAGLTVKPSGKPRRKSGIPIFLPRVTEKLDRIPKTPPADPDDQAKMPKATTAVPSLLRRKYSPSSQGVDSGSFDRKSVYRGSLTQRNPNGRRGTARHIFAKPVMAQQP
# Target: F-actin (rabbit skeletal actin) (Oryctolagus cuniculus (Rabbit), UniProt P68135)
# Assay: F-actin co-sedimentation (SDS-PAGE/CBB); actin in filamentous form; binding antagonized by Myo5a-MTD (mutually exclusive with exon-G)
binder,measurement,value
B1,binding result,binds
